{"source": "patent US20230398217A1", "about": "(published 2023)", "binders": {"B1": {"name": "HA1-Fred Hutch (TCR, V domains shown)", "Valpha": "KQEVTQIPAALSVPEGENLVLNCSFTDSAIYNLQWFRQDPGKGLTSLLLIQSSQREQTSGRLNASLDKSSGRSTLYIAASQPGDSATYLCAVIGLGGTYKYIFGTGTRLKVLA", "Vbeta": "DTGVSQDPRHKITKRGQNVTFRCDPISEHNRLYWYRQTLGQGPEFLTYFQNEAQLEKSRLLSDRFSAERPKGSFSTLEIQRTEQGDSAMYLCASSLVKGEKLFFGSGTQLSVL"}, "B2": {"name": "HA1-10-104 (TCR, V domains shown)", "Valpha": "AQSVTQPDIHITVSEGASLELRCNYSYGATPYLFWYVQSPGQGLQLLLKYFSGDTLVQGIKGFEAEFKRSQSSFNLRKPSVHWSDAAEYFCAVANAGGTSYGKLTFGQGTILTVHP", "Vbeta": "NAGVTQTPKFRVLKTGQSMTLLCAQDMNHEYMYWYRQDPGMGLRLIHYSVGEGTTAKGEVPDGYNVSRLKKQNFLLGLESAAPSQTSVYFCASGRSGTKFFGPGTRLTVL"}, "B3": {"name": "HA1-1-12 (TCR, V domains shown)", "Valpha": "EDQVTQSPEALRLQEGESSSLNCSYTVSGLRGLFWYRQDPGKGPEFLFTLYSAGEEKEKERLKATLTKKESFLHITAPKPEDSATYLCAVHLNAGGTSYGKLTFGQGTILTVHP", "Vbeta": "DAGVTQSPTHLIKTRGQHVTLRCSPISGHKSVSWYQQVLGQGPQFIFQYYEKEERGRGNFPDRFSARQFPNYSSELNVNALLLGDSALYLCASSFDRGTNGYTFGSGTRLTVV"}, "B4": {"name": "HA1-TSC-100 (TCR, V domains shown)", "Valpha": "KQEVTQIPAALSVPEGENLVLNCSFTDSAIYNLQWFRQDPGKGLTSLLLIQSSQREQTSGRLNASLDKSSGRSTLYIAASQPGDSATYLCAVRGGTSGTYKYIFGTGTRLKVLA", "Vbeta": "B1 Vbeta with L96R, V97T, K98A, E100D, K101T, L102Q, F103Y, S106P, Q109R, S111T"}, "B5": {"name": "HA1-9-105 (TCR, V domains shown)", "Valpha": "GENVEQHPSTLSVQEGDSAVIKCTYSDSASNYFPWYKQELGKRPQLIIDIRSNVGEKKDQRIAVTLNKTAKHFSLHITETQPEDSAVYFCAVGQNFVFGPGTRLSVLP", "Vbeta": "DTGVSQDPRHKITKRGQNVTFRCDPISEHNRLYWYRQTLGQGPEFLTYFQNEAQLEKSRLLSDRFSAERPKGSFSTLEIQRTEQGDSAMYLCASSPTTINEAFFGQGTRLTVV"}, "B6": {"name": "HA1-10-93 (TCR, V domains shown)", "Valpha": "GENVEQHPSTLSVQEGDSAVIKCTYSDSASNYFPWYKQELGKRPQLIIDIRSNVGEKKDQRIAVTLNKTAKHFSLHITETQPEDSAVYFCPIRQFYFGTGTSLTVIP", "Vbeta": "B1 Vbeta with K98V, G99V, E100D, K101T, L102Q, F103Y, S106P, Q109R, S111T"}, "B7": {"name": "HA1-9-46 (TCR, V domains shown)", "Valpha": "B6 Valpha with P91A, I92A, R93S, Q94I, F95M, Y96R, T99A, S102R, I106K", "Vbeta": "B5 Vbeta with D7N, P96L, T97S, T98V, I99V, N100D, A102Q, Q106P, V113L"}, "B8": {"name": "HA1-2-23 (TCR, V domains shown)", "Valpha": "B4 Valpha with G94P, G95T", "Vbeta": "B5 Vbeta with S95I, P96L, T97V, T98G, I99G, N100T"}, "B9": {"name": "HA1-10-26 (TCR, V domains shown)", "Valpha": "GENVEQHPSTLSVQEGDSAVIKCTYSDSASNYFPWYKQELGKRPQLIIDIRSNVGEKKDQRIAVTLNKTAKHFSLHITETQPEDSAVYFCAASGLGSGAGSYQLTFGKGTKLSVIP", "Vbeta": "B1 Vbeta with V97L, K98A"}, "B10": {"name": "HA1-2-21 (TCR, V domains shown)", "Valpha": "GQQVMQIPQYQHVQEGEDFTTYCNSSTTLSNIQWYKQRPGGHPVFLIQLVKSGEVKKQKRLTFQFGEAKKNSSLHITATQTTDVGTYFCAGPSGNTPLVFGKGTRLSVIA", "Vbeta": "B5 Vbeta with P96L, T97L, I99T, A102Q, Q106P, V113L"}, "B11": {"name": "HA1-10-34 (TCR, V domains shown)", "Valpha": "GENVEQHPSTLSVQEGDSAVIKCTYSDSASNYFPWYKQELGKRPQLIIDIRSNVGEKKDQRIAVTLNKTAKHFSLHITETQPEDSAVYFCAARGPGTYKYIFGTGTRLKVLA", "Vbeta": "DTGVSQDPRHKITKRGQNVTFRCDPISEHNRLYWYRQTLGQGPEFLTYFQNEAQLEKSRLLSDRFSAERPKGSFSTLEIQRTEQGDSAMYLCASVAGTVYNEQFFGPGTRLTVL"}, "B12": {"name": "HA1-6-2 (TCR, V domains shown)", "Valpha": "AQTVTQSQPEMSVQEAETVTLSCTYDTSESNYYLFWYKQPPSRQMILVIRQEAYKQQNATENRFSVNFQKAAKSFSLKISDSQLGDTAMYFCALYSGAGSYQLTFGKGTKLSVIP", "Vbeta": "B11 Vbeta with V95F, A96E, G97L, T98A, V99G, Y100G, N101Y"}}, "note": "Substitutions are numbered along the chain they refer to."}
{"molecular_target": "T1, HA-1 (HMHA1, also known as ARHGAP45; R139H polymorphism, genotype RS_1801284 A/G or A/A) peptide on … (human)", "T1 peptide": "VLHDDLLEA", "assay": "killing"}
{"binder": "B1", "binding result": "recognises"}
{"molecular_target": "T1, HA-1 (HMHA1, also known as ARHGAP45; …)", "assay": "multimer staining"}
{"binder": "B2", "binding result": "recognises"}
{"binder": "B3", "binding result": "recognises"}
{"binder": "B4", "binding result": "recognises"}
{"binder": "B5", "binding result": "recognises"}
{"binder": "B6", "binding result": "recognises"}
{"binder": "B7", "binding result": "recognises"}
{"binder": "B8", "binding result": "recognises"}
{"binder": "B9", "binding result": "recognises"}
{"binder": "B10", "binding result": "recognises"}
{"binder": "B11", "binding result": "recognises"}
{"binder": "B12", "binding result": "recognises"}
{"molecular_target": "T2, CCDC114 peptide on HLA-A*02:01 (human)", "T2 peptide": "SMIDDLLGV", "assay": "activation reporter or marker"}
{"binder": "B4", "binding result": "no recognition"}
{"binder": "B1", "binding result": "recognises"}
